# Source: patent publication US10876098B2, “Polynucleotide, host cell and a method to recombinantly produce the protein encoded by said polynucleotide having peroxygenative activity” (CONSEJO SUPERIOR DE INVESTIGACIONES CIENTIFICAS (CSIC), priority 2015, dated 2020)
# B1: JaWa: PaDa-I variant with added mutations G241D and R257K, SEQ ID NO: 24 (protein)
# chain: MKYFPLFPTLVYAVGVVAFPDYASLAGLSQQELDAIIPTLEAREPGLPPGPLENSSAKLVNDEAHPWKPLRPGDIRGPCPGLNTLASHGYLPRNGVATPAQIINAVQEGFNFDNQAAIFATYAAHLVDGNLITDLLSIGRKTRLTGPDPPPPASVGGLNEHGTFEGDASMTRGDAFFGNNHDFNETLFEQLVDYSNRFGGGKYNLTVAGELRFKRIQDSIATNPNFSFVDFRFFTAYGETTFPANLFVDGRRDDGQLDMDAARSFFQFSRMPDDFFRAPSPRSDTGVEVVVQAHPMQPGKNVGKINSYTVDPTSSDFSTPCLMYEKFVNITVKSLYPNPTVQLRKALNTNLDFLFQGVAAGCTQVFPYGRD
# What was measured:
# [1] = Optimum pH for naphthalene; format: biochemical
# [2] = Stability at high acetonitrile concentrations; format: physicochemical; conditions: 5 hours of incubation, 50% to 100% co-solvent, 20° C.; versus PaDa-I
# Experimental: FIG. 2 Biochemical characteristics of the variants of the invention. A) Spectroscopic characteristics of the PaDa-I (thin line) and JaWa (thick line) mutants at rest. AU, arbitrary units. B) Thermostability analysis (T50) of the PaDa-I (black circles) and JaWa (white circles) mutants. The experiments were carried out using culture supernatants and each point represents the average value and standard deviation of three individual experiments. C) Stability of the PaDa-I (black bars) and JaWa (grey bars) mutants at high acetonitrile concentrations. The stabilities were determined after 5 hours of incubation of the enzyme in increasing concentrations of the co-solvent (from 50% to 100%) at 20° C. in 10 mM pH 7.0 potassium phosphate buffer. […] The error bars indicate standard deviations.
# [3] = Thermostability assay (T50), culture supernatants, residual activity with ABTS; format: physicochemical
# Experimental: An individual S. cerevisiae colony was selected with the corresponding clone (grown in a SC drop-out minimal medium plate: 100 mL of 6.7% yeast nitrogen base, 100 mL of 19.2 g/L uracil-free amino acid supplement, 100 mL of 20% glucose, 1 mL of 25 g/L chloramphenicol and ddH2O up to 1,000 mL) was inoculated in 2 mL of selective minimal medium (as in the SC plate medium, but with 20 g of bacto agar and rafinose instead of galactose) and was incubated for 48 hour at 30° C. and 220 RPM. An aliquot of this culture was taken such that, upon inoculating it in 5 mL of new minimal medium, optical density at 600 nm would have a value of 0.25 (optical density, OD600=0.25). This starter was incubated until completing two full growth cycles (between 6 and 8 hours), at which time 1 mL of cells were taken to inoculate 9 mL of expression medium in a 100 mL flask (OD600=0.1). This culture of each clone was incubated for 72 hours at 25° C. and 220 RPM (at peak UPO activity; OD600=25-30), the cells were separated by centrifugation (10 minutes at 4,500 RPM and 4° C.) and supernatant was filtered (using a glass and nitrocellulose filter with a pore size of 0.45 μm). Appropriate dilutions of the supernatants were prepared so that aliquots of 20 μL would give rise to a linear response in kinetic mode. 50 μL of supernatant were used for each point in a temperature gradient created by means of thermocyclator, from 30 to 80° C. After incubating for 10 minutes, the aliquots were cooled in ice for 10 minute and tempered at room temperature for 5 minutes. […] The thermostability values were calculated in accordance with the ratio between the residual activities incubated at different temperatures and the value of initial activity at room temperature. The value of T50 was determined as the value of the temperature at which the protein loses 50% of it initial activity after incubating for 10 minutes.
# An individual S. cerevisiae colony was selected with the corresponding clone (grown on a SC drop-out minimal medium plate: 100 mL of 6.7% yeast nitrogen base, 100 mL of 19.2 g/L uracil-free amino acid supplement, 100 mL of 20% glucose, 1 mL of 25 g/L chloramphenicol and ddH2O up to 1,000 mL), was inoculated in 3 mL of selective minimal medium (like the SC plate medium, but with 20 g of bacto agar and rafinose instead of galactose) and incubated for 48 hours at 30° C. and 220 RPM. […] The thermostability values were calculated in accordance with the ratio between the residual activities incubated at different temperatures and the value of initial activity at room temperature. The value of T50 was determined as as the temperature value at which the protein loses 50% of its initial activity after incubating for […].
# [4] = Propranolol transformation reaction analysed by HPLC-PDA; format: biochemical; conditions: absence of ascorbic acid
# Experimental: FIG. 13 Chromatogram showing the enzyme reactions.
# (§1) The reactions were analysed by means of chromatography in reverse phase (HPLC). The equipment was composed of a tertiary pump (Varian-Agilent Technologies, USA) coupled to an autosampler (Merck Millipore, MA, USA); for the separation, a Zorbax Eclipse plus C18 column (15 cm×4.6 cm) at 40° C. was used and the detection was performed using a photodiode detector (PDA) (Varian, Agilent Technologies, USA). The mobile phase selected was a gradient from 10% methanol and 90% ddH2O (in both cases with 0.1% of acetic acid) up to 90% methanol and 10% ddH2O at a flow rate of 0.8 mL/min. The reaction was quantified at 280 nm (based on HPLC standards). […] The standard deviations were less than 5% in all cases.
# [5] = Turnover with 5′-hydroxypropranolol as substrate, HPLC; format: biochemical; conditions: 0.03 μM enzyme, 0.4 mM 5′-hydroxypropranolol, 2 mM H2O2, absence of ascorbic acid
# Experimental: FIG. 14 Turnover rates of AaeUPO, JaWa and SoLo. […] The disappearance of the product 5′-hydroxypropranolol can be observed due to the formation of its corresponding quinone by means of the peroxidase activity of the enzyme.
# as §1
molecule,measurement,setting,value
B1,Optimum pH for naphthalene,[1],6.0
same,stability in the presence of acetonitrile,[2],higher stability in the presence of acetonitrile
same,"Thermal stability, T50","[3]; culture supernatants, temperature at which the enzyme retains 50% of its activity after 10 minutes of incubation",59.7 °C
same,increase in thermostability (T50) with respect to PaDa-I,[3]; versus PaDa-I variant,2 °C
same,regioselectivity against 5′-hydroxypropranolol,"[4]; 0.03 μM enzyme, 4 mM propranolol, 2 mM H2O2",99%
same,amount of 5′-hydroxypropranolol produced,"[4]; compared among AaeUPO, PaDa-I, JaWa, SoLo",produce the largest amount of 5′-hydroxypropranolol
same,5′-hydroxypropranolol maintained without oxidising,[5],oxidise practically the entire product
